Source: publication PMC6554060 (Journal of molecular biology, 2019)

Target: His6-tagged WT-αSyn (human, UniProt P37840 1-140)
Assay: BLI

Kd: 15.3 µM
B1: E234G/H363A-HYPE (enzyme)
chain: GKLEARAALNQALEMKRQGKREKAQKLFMHALKMDPDFVDALTEFGIFSEEDKDIIQADYLYTRALTISPYHEKALVNRDRTLPLVEEIDQRYFSIIDSKVKKVMSIPKGNSALRRVMEETYYHHIYHTVAIGGNTLTLSEIRHILETRYAVPGKSLEEQNEVIGMHAAMKYINTTLVSRIGSVTISDVLEIHRRVLGYVDPVEAGRFRTTQVLVGHHIPPHPQDVEKQMQEFVQWLNSEEAMNLHPVEFAALAHYKLVYIAPFIDGNGRTSRLLMNLILMQAGYPPITIRKEQRSDYYHVLEAANEGDVRPFIRFIAKCTETTLDTLLFATTEYSVALPEAQPNHSGFKETLPVKP
